Here are results for one substance from publication PMC7196836, “Molecular analysis of the ribosome recycling factor ABCE1 bound to the 30S post‐splitting complex” (The EMBO Journal, 2020).

The target of this assay is Thermococcus celer 30S small ribosomal subunit (T. celer (endogenous in T. celer cells)) (UniProt P29161). The assay is described as follows: cryo-EM structure; post-splitting complex from 1 nmol T. celer 70S split by ABCE1^IIEA (8 uM), aPelota and aRF1 (5 uM each), 0.5 mM AMP-PNP, 50 mM HEPES-KOH pH 7.5, 30 mM KCl, 10 mM MgCl2, 2 mM DTT, 65 °C 15 min; cross-linked with 1% formaldehyde; 30S fractions of a 10-30% sucrose gradient.

For “ABCE1^IIEA (E238A/E485A), hydrolysis-deficient ABCE1 from Saccharolobus solfataricus (from UniProt Q980K5 1-594) (enzyme)”, the percent of 30S particles associated with ABCE1 (3D classification) was 97%.
